T1: AlpZ (Streptomyces ambofaciens, UniProt Q6VMG9 1-237)
T1 sequence: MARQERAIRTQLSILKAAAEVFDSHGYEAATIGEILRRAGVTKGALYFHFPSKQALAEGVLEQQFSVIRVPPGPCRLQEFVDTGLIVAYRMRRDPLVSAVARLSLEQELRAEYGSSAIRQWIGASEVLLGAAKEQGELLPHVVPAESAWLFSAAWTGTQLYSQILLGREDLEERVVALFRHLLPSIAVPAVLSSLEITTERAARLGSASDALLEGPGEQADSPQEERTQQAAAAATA

B1: nanoAREV dsoverhang (dsDNA)
DNA 1: CTCACATTGACAAACCGACTGTGCTGTTTTTTTATCAGGGATCAGCGTTCGATGCTTCCGACTAATCAGCCATATCAGCTTACGACTA
DNA 2: CCCTGATAAAAAAACAGCACAGTCGGTTTGTCAATGTGAG
B2: nanoControl dsoverhang (dsDNA)
DNA 1: GGGGGGTGTGAGAACGGGGTGTTCTGGTGTTTGCGCCGGAATCAGCGTTCGATGCTTCCGACTAATCAGCCATATCAGCTTACGACTA
DNA 2: TCCGGCGCAAACACCAGAACACCCCGTTCTCACACCCCCC

Assays:
AlpZ [1] = target: T1, AlpZ; experiment: switchSENSE; AlpZ 50 nM; kON 1.38e5 M-1 s-1, kOFF 1.05e-4 s-1 (printed rates give 0.76 nM, inconsistent with printed KD); switchSENSE: PE40 pH 7.4 (10 mM Na phosphate, 40 mM NaCl, 0.05% Tween20, 50 uM EDTA, 50 uM EGTA), 30 C; EMSA: 20 mM HEPES pH 7.6, 1 mM EDTA, 10 mM (NH4)2SO4, 1; settings: protein: recombinant; chain copies: 2; label: fluorescent nanolever on the switchSENSE chip; 40 bp duplex with 3' overhang 48 nt on strand 1, hybridized to chip nanolever
AlpZ [2] = target: T1, AlpZ; experiment: switchSENSE; no association observed; switchSENSE: PE40 pH 7.4 (10 mM Na phosphate, 40 mM NaCl, 0.05% Tween20, 50 uM EDTA, 50 uM EGTA), 30 C; EMSA: 20 mM HEPES pH 7.6, 1 mM EDTA, 10 mM (NH4)2SO4, 1; settings: protein: recombinant; chain copies: 2; label: fluorescent nanolever on the switchSENSE chip; 40 bp duplex with 3' overhang 48 nt on strand 1, hybridized to chip nanolever

Row | Binder | Kd (AlpZ [1]) [nM] | binding result (AlpZ [2])
1 | B1 | 37.1 ± 3.3 | –
2 | B2 | – | no binding

Source: paper PMC7343708, “Molecular Dynamics to Elucidate the DNA-Binding Activity of AlpZ, a Member of the Gamma-Butyrolactone Receptor Family in Streptomyces ambofaciens”
